Data published in patent US20010010923A1, “MODIFIED CARBOXYPEPTIDASE” (priority 1997, published 2001).
Changes are numbered by the printed parent chain. Numbers in names are those of the source. Entries after “also recorded” stand apart in the source; their conditions may differ. Marks after values point to notes of the source that are not given here.

B1: M398V: carboxypeptidase Y S1' mutant, substitution M398V (protein, UniProt P00729 112-532, looked up, variant M398V)
Carboxypeptidase Y: KIKDPKILGIDPNVTQYTGYLDVEDEDKHFFFWTFESRNDPAKDPVILWLNGGPGCSSLTGLFFELGPSSIGPDLKPIGNPYSWNSNATVIFLDQPVNVGFSYSGSSGVSNTVAAGKDVYNFLELFFDQFPEYVNKGQDFHIAGESYAGHYIPVFASEILSHKDRNFNLTSVLIGNGLTDPLTQYNYYEPMACGEGGEPSVLPSEECSAMEDSLERCLGLIESCYDSQSVWSCVPATIYCNNAQLAPYQRTGRNVYDIRKDCEGGNLCYPTLQDIDDYLNQDYVKEAVGAEVDHYESCNFDINRNFLFAGDWMKPYHTAVTDLLNQDLPILVYAGDKDFICNWLGNKAWTDVLPWKYDEEFASQKVRNWTASITDEVAGEVKSYKHFTYLRVFNGGHVVPFDVPENALSMVNEWIHGGFSL
B2: T60Y + M398Y: carboxypeptidase Y double substitution mutant T60Y + M398Y (protein, UniProt P00729 112-532, looked up, variant T60Y M398Y)
Carboxypeptidase Y: B1 Carboxypeptidase Y with T60Y, V398Y
B3: T60D + M398Y: carboxypeptidase Y double substitution mutant T60D + M398Y (protein, UniProt P00729 112-532, looked up, variant T60D M398Y)
Carboxypeptidase Y: B1 Carboxypeptidase Y with T60D, V398Y
B4: T60A + M398Y: carboxypeptidase Y double substitution mutant T60A + M398Y (protein, UniProt P00729 112-532, looked up, variant T60A M398Y)
Carboxypeptidase Y: B1 Carboxypeptidase Y with T60A, V398Y
B5: T60C: carboxypeptidase Y S1' mutant, substitution T60C (protein, UniProt P00729 112-532, looked up, variant T60C)
Carboxypeptidase Y: B1 Carboxypeptidase Y with T60C, V398M
B6: T60F: carboxypeptidase Y S1' mutant, substitution T60F (protein, UniProt P00729 112-532, looked up, variant T60F)
Carboxypeptidase Y: B1 Carboxypeptidase Y with T60F, V398M
B7: T60A + M398L: carboxypeptidase Y double substitution mutant T60A + M398L (protein, UniProt P00729 112-532, looked up, variant T60A M398L)
Carboxypeptidase Y: B1 Carboxypeptidase Y with T60A, V398L
B8: T60Y + M398L: carboxypeptidase Y double substitution mutant T60Y + M398L (protein, UniProt P00729 112-532, looked up, variant T60Y M398L)
Carboxypeptidase Y: B1 Carboxypeptidase Y with T60Y, V398L
B9: M398I: carboxypeptidase Y S1' mutant, substitution M398I (protein, UniProt P00729 112-532, looked up, variant M398I)
Carboxypeptidase Y: B1 Carboxypeptidase Y with V398I
B10: T60D + M398L: carboxypeptidase Y double substitution mutant T60D + M398L (protein, UniProt P00729 112-532, looked up, variant T60D M398L)
Carboxypeptidase Y: B1 Carboxypeptidase Y with T60D, V398L

Columns and labels:
[1] = Transpeptidation of FA-Ala-OBzl with H-Leu-NH2, Table 3; format: biochemical; settings: FA-Ala-OBzl 0.2 mM, pH 7.5; for fa: H-Leu-NH2; for KN(app): nucleophile H-Leu-NH2 concentration at which fa is half of maximum
Procedure: (§1) Transamidation reactions were carried out generally as described in PCT Application WO 95/20039. In general, the method included dissolving the nucleophile (H-Leu-NH2, unless otherwise indicated) in 50 mM HEPES, 5 mM EDTA and adjusting the pH to 7.5, 5 μl of peptide substrate (8 mM Bz-G-A-R-A-R-A-OH, unless otherwise indicated, in methanol) was added to 190 μl nucleophile solution followed by 5 μl enzyme, resulting in a substrate concentration of 0.2 mM.
(§2) During the reaction, 20 μl aliquots were removed from the reaction mixture and added to 50 μl 1% trifluoroacetic acid to quench the reaction. The reactant composition was determined by HPLC using a Waters HPLC equipped with a C-18 Waters Novapac 4μ reverse phase column and various gradients of acetonitrile in 0.1% trifluoroacetic acid. The separation was monitored at 254 nm allowing the direct quantification of the products from the integrated peak areas. The composition of the reaction mixture was determined at least twvice during the reaction, the first when 20-50% (preferably 35%) of the substrate had been consumed in the reaction and the second time when 50-90% (preferably 80%) of the peptide substrate had been consumed.
(§3) The fraction of aminolysis (fa) was expressed as the ratio between the formed aminolysis product and the sum of all products formed. Unconsumed substrate was disregarded in the calculations.
Site specific mutagenesis was performed as described in Example 1 to produce the specific substitution mutants described below. Transamidation reactions were performed as described for Example 1.
In table 3, below, KN(app) represents the nucleophile concentration at which fa is half of the maximum value (a measure for the dissociation constant of the nucleophile). famax is the highest possible fa obtained at saturation of the enzyme with the nucleophile.
KN(app) indicates the concentration at which famax/2 is reached and thus describes the apparent binding constant of the nucleophile. Because the competing hydrolysis reaction is thought to occur while the leaving group remains attached to the to the acyl-enzyme intermediate, a low KN(app) is preferred.

[2] = Transpeptidation of FA-Ala-Xaa-OH with H-Gly-NH2, Table 2; format: biochemical; settings: for Fraction of aminolysis (fa), P1' Ala: FA-Ala-Ala-OH 0.2 mM; for Fraction of aminolysis (fa), P1' Ala / Fraction of aminolysis (fa), P1' Leu / Fraction of aminolysis (fa), P1' Met / Fraction of aminolysis (fa), P1' Phe / Fraction of aminolysis (fa), P1' Val: 1.9 M H-Gly-NH2, pH 7.5, room temperature; for Fraction of aminolysis (fa), P1' Leu: FA-Ala-Leu-OH 0.2 mM; for Fraction of aminolysis (fa), P1' Met: FA-Ala-Met-OH 0.2 mM; for Fraction of aminolysis (fa), P1' Phe: FA-Ala-Phe-OH 0.2 mM; for Fraction of aminolysis (fa), P1' Val: FA-Ala-Val-OH 0.2 mM; for fraction of aminolysis compared to wild type, in words: larger, hydrophobic leaving group such as leucine
Procedure: as §1, §2, §3
Site specific mutagenesis was performed as described for Example 1 to produce the S1 mutants used below.
Transamidation reactions were performed as described for Example 1.

Row | Molecule | fa [1] | KN(app) [1] | Fraction of aminolysis (fa), P1' Ala [2] | Fraction of aminolysis (fa), P1' Leu [2] | Fraction of aminolysis (fa), P1' Met [2] | Fraction of aminolysis (fa), P1' Phe [2] | Fraction of aminolysis (fa), P1' Val [2] | fraction of aminolysis compared to wild type, in words [2] | fraction of aminolysis compared to wild type, in words ([2]; listed as M3981)
1 | B1 | 0.87^a | 1.43^b mM | 0.93 | 0.91 | 0.83 | 0.86 | 0.81 | improvement in fraction of aminolysis obtained; also recorded: most dramatic improvement; also recorded: enhanced transpeptidation | 
2 | B2 | 0.99^a | 5.4^b mM | 0.74 | 0.77 | 0.76 | 0.75 | 0.74 | further improved the fraction of aminolysis | 
3 | B3 | 0.89^a | 9.2^c mM | 0.70 | 0.75 | 0.72 | 0.56 | 0.71 | further improved the fraction of aminolysis | 
4 | B4 | 0.97^a | 9.1^b mM | 0.80 | 0.83 | 0.83 | 0.81 | 0.81 | further improved the fraction of aminolysis | 
5 | B5 | 0.98^a |  | 0.92 | 0.19 | 0.15 | 0.08 | 0.27 |  | 
6 | B6 | 0.98^a |  | 0.85 | 0.17 | 0.21 | 0.12 | 0.15 |  | 
7 | B7 | 0.99^a | 1.0^b mM | 0.92 | 0.94 | 0.72 | 0.52 | 0.91 | further improved the fraction of aminolysis | 
8 | B8 | 1.0^a | 1.7^c mM | 0.92 | 0.95 | 0.93 | 0.87 | 0.89 | further improved the fraction of aminolysis | 
9 | B9 | 0.94^a | 0.91^b mM | 0.93 | 0.91 | 0.83 | 0.75 | 0.87 | improvement in fraction of aminolysis obtained; also recorded: most dramatic improvement | enhanced transpeptidation
10 | B10 | 1.0^a | 2.0^b mM | 0.89 | 0.89 | 0.66 | 0.62 | 0.90 | further improved the fraction of aminolysis | 
